Assay results reported in US20250302942A1 (LG CHEM, published 2025).

Biological target: T1, ACE2-Fc (LG chem) (human, UniProt Q9BYF1 18-740)
T1 construct: extracellular domain; also called ACE2-ED; extracellular domain of human Angiotensin Converting Enzyme 2 protein; not shown: Fc part of ACE2-Fc
Assay: BLI (Octet QKe), ACE2-Fc captured on Protein A sensor, analyte at 100 ug/mL

T1 sequence (Q9BYF1 18-740): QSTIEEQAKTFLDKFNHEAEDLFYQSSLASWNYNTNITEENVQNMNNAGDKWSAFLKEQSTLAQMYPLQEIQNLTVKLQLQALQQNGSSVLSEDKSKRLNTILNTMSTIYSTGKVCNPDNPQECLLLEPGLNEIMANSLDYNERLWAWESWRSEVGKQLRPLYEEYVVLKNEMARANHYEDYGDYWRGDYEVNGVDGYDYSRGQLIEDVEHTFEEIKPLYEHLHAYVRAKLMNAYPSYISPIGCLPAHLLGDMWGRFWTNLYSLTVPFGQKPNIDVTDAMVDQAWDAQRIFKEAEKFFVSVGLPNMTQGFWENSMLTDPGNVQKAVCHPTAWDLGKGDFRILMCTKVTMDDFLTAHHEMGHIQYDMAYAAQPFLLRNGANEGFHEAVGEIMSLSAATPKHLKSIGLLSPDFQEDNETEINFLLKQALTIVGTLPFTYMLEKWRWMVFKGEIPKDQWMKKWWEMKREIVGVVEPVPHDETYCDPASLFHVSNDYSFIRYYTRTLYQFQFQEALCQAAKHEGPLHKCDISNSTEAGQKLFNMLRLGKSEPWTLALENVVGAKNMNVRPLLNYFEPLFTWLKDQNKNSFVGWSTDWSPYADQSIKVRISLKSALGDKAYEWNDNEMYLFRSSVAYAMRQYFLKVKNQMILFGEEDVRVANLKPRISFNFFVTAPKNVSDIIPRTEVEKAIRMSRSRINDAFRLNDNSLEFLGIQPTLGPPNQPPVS

B1: Hepatitis B surface antigen (HBsAg) VLP (other)
chain: MESTTSGFLGPLLVLQAGFFLLTRILTIPQSLDSWWTSLNFLGGAPTCPGQNSQSPTSNHSPTSCPPICPGYRWMCLRRFIIFLFILLLCLIFLLVLLDYQGMLPVCPLLPGTSTTSTGPCKTCTIPAQGTSMFPSCCCTKPSDGNCTCIPIPSSWAFARFLWEWASVRFSWLSLLVPFVQWFAGLSPTVWLSVIWMMWYWGPSLYNILSPFLPLLPIFFCLWVYI
notes: also called HBsAg1
ACE2 Binding activity: 0.24
